# Data: the DeepSol protein solubility set
# Test: soluble on expression in E. coli; label from the status in PepcDB or PDB records
row,Sequence,soluble on expression in E. coli
1,MGSDKIHHHHHHMLLVTSHDIQTALEKGIQYQKLTHLFGTLSLQETENHIILNYLPVDLKTEIGLLRAQCEISGTYKFIQDIYTMMGLKMPDMRIDLPFPKPSDPDTVAQYYAYYGDDLHFNSTHAAFSLSKNVLEIKIPSADIITHRIYEAKCIKEIERLNEQDHQIPPIIQYVQDYLELQQGIIPSMAETAFALKMPERTLRHQLQQLNTSYKQIREQIIKNKALKLMEYKEYSIEVIAEALGYSEPAAFNHAFKRWFGQSPRQYGKEFY,not soluble
2,MGSDKIHHHHHHMTTKPERVVLIGVAGDSGCGKSTFLRRLIDLFGEEFMTVICLDDYHSLDRKQRKETGITALDPRANNFDLMYEQIKALKEGQTINKPIYNHETGLIDPPEIVKPNHIVVVEGLHPLYDERVRSLLDFSVYFDISDEVKIAWKIQRDMAERGHRYEDVLAAINSRKPDFQKYIEPQREFADVVLQVLPTNLIKDDTDRKVLRVRMLQREGKEGFEPAYLFDEGSTINWTPCGRKLTCSYPGMQLYYGSDVYYGRYVSVLEVDGQFDNLEEVIYIETHLSNTSTKYQGELTQLLLQHREYPGSNNGTGFFQVLTGLKMRAAYERLTAKEAKLAVQV,not soluble
3,MRMLRRLRRATVAAAVWLATVCLVASCANADPLGSATGSVKSIVVGSGDFPESQVIAEIYAQVLQANGFDVGRRLGIGSRETYILALKDHSIDLVPEYIGNLLLYFQPDATVTMLDAVELELYKRLPGDLSILTPSPASDTDTVTVTAATAARWNLKTIADLAPHSADVKFAAPSAFQTRPSGLPGLRHKYSLDIAPGNFVTINDGGGAVTVRALVEGTATAANLFSTSAAIPQNHLVVLEDPEHNFLAGNIVPLVNSRKKSDHLKDVLDAVSAKLTTAGLAELNAAVSGNSGVDPDQAARKWVRDNGFDHPVRQ,soluble
4,MSLASTFKFLVTSDNHLGYQERDSRRGDDSFTTFEECLRAARLEHEVDAILLAGDFFHDNKPSLGCLARTSSLLRSYVLGDKPISFTLLSDPKRNFPTHPVPLANFQDPNINVALPIFMIHGNHDDPVGGTSSIDILSTAGLVNYFGHTSSLDDIVVEPVLLKKGDTYIALYGLGNVRDDRLHRCFRMKKLHFVQPKTEPGKDWFKILLFHQNRGVRSGGNMKCGIYETMLAGHGMDLVIWGNEHEQQMEPSPSEGFDIIQPGSTILTSLSEHECNPKKYGVLEVRGGSYRVTGFPLRSIRPVVRRTVELWRDNPGCRTLDAVEDFLRSVVEQMIEEAEEQVSRIPDDVLKFHPNIKFPIMRLAVDFTDPDSTTFPQPNINRFGQQYMDIVVNPSELLRPIKPKQVPRVASSASATGGEAPVVPVPRLNTSDIRTKVAEVFNANARDACSLLSESEVSAAVYAFAEKGERDAIDERICELLSKCQKSVWVSMRREGHHHHHH,soluble
5,MGSDKIHHHHHHEDDNIRPFGKDVEAGAPGVVSEIKVKNIPGGAVISYQLPDNPDIMYVRARYKVGQGKEMEARASVYANELTVNGFGDMNEHEVELSCVDRMENEGATTVAVVTPLKPSVLTTFESLEVNATFGGVYVNFKNPEKASLSIHVVTTDSLNQPYEAHVQYTQAEKGPFYVRGFKAEERMFDIYVVDRWGNSSDTLYNVLTPYEETRLNKKLFYPYILPNDVACNAWGGNLAYAWNDDYTPALFVHSPGGDTFPMWFTFDMGVTAKLSRYKFYHLFMEEHAFQRGNLKTWEVWGRTDTPPADGSWDGWTKLMDCESHKPSGLPVGQHTAEDWEYLQAGEDFEFPAEAPPVRYIRFKVLETWGGMDFIHFTEFTFWGNVISNN,not soluble
6,MKSNTSQQRPYQEVGAMIRDLIVQTPYRPGERLPPEREIAERLNVTRTVVREALIMLEIKGLVEVRRGAGIYVLDSADNNEMEGADVNHCNDAGPFELLQARQLLESNIAEFAALQATREDIIKMRQALQLEERELASSAPGGSESGDMQFHLAIAEATHNSMLVELFRQSWQWRENNPMWLQLHSHLGDTLYRKEWLVDHKQILAALIKKDARAAKLAMWQHLENVKQRLLEFSNVDDIYFDGYLFESWPLDNVDA,not soluble
7,GSHMFMPSDRSTERCETVLEGETISCFVVGGEKRLCLPQILNSVLRDFSLQQINAVCDELHIYCSRCTADQLEILKVMGILPFSAPSCGLITKTDAERLCNALLYG,soluble
8,MSLPTNPFISLFGRSPIGPMQQHIAKAHECAAGLLPFFRAVIAEDWAQVEQVQQDMVRLEQEADRLKKHVRMHLPKSLFLPVPRSDLLELLSVQDKVANRAKDIAGLMLGRRMRIPLPLQGQMLAYVQRSVDASAQALRVVNELNELLETGFGGRETSLVESMVEELEAIENDTDRIQVEVRRELFRLESELPPVDVMFLYQIIEWIGDVADRAQRVGNRLEQLLAREGHHHHHH,soluble
9,TVPDFSAFAVEVPALKSNDEAIDAQIDKLRERFGELKDTKRKLKTDDFAIIDIEAAIDGEKLEEATTEGMSYQVGAGDLIDGLDTALRGLKAGESAEFTTTLKAGEHEGKEAAVTVTVQQTKERKLPELDEEFVQTASEFDTVEELRESIAEQVAEQAKAEQATAIRDEVLKAALAEATFELPEGVVEDQIHAQLHQLLNQVGGDEAALNAALEAQGTSREQFDADNRKNSEEAVRTQLFLDALAEQEQPEVSQQELTDHILFTAQSYGMDPNQFITQLQQSGQIGNLFSDVRRGKALAAAICRVSVKDDEGKAVDPSEYFGEEEESAEESE,not soluble
10,MLVLPKGVRHMPAYLSRAIQDALVEDVRSIVQQAPLFVPAMPRTGKEMSVRMTNCGPLGWVTDKERGYRYQPTHPLTGEPWPPIPESLLDLWRQVSGYPNPPEACLINFYTADAKMGLHQDRDEADFSAPVVSVSLGDDCLFRVGQTTRDGATKSFRLKSGDVVVLGGEGRLAFHGVDRIYPSTSALLKNGGRINLTLRRVTKPHEECLTSRSLEHHHHHH,soluble
11,MRGENTMTPVFELKNVNYYYDHKKVLENINIKINKGEFLAIVGPNGAGKSTLLKLILGLLPLQSGEIFVEGIDFKNKKTSIKLSYVSQKANAFNSGFPASVKEVVLSGLTKTKRLFQTFNSKDNEKVIKVLERLNISDLIHKNIAELSGGQQQRVMIARALISEPAVLVLDEPTNGIDAKHVSEFYNTLDQLKQEGITIILVTHDIGVVADTATEVACLNKHLHFHGTTDEFKSLDEVEISKIYGHPVRFVDHQHNRECCN,not soluble
12,MLGYAFPSILGNLMSKIYQMDAVDWLKTLENCSVDLFITDPPYESLEKYRQIGTTTRLKESKSSSNQWFSVFPNTRFEELFREVYRVLKKGSHFYLFCDQETMFLAKPIAESVGFKFWKPIVWDKCAIGMGYHYRARYEFILFFEKGKRKLNDLSVPDVLEYKRVWKGYPTEKPVELLEVLIRQSSSENEIVADSFFGSGSTLIAANNLSRKYIGCDISSSAHEYFKNRA,not soluble
13,MSLKNELEFAKKLIDFIYDSPSPFHSVDNIKNTLIENGFAEIKEENKWELNKNGKYFVKRNDSALIAFTVGSGFVAKKGFKIIGGHTDSPTFRIKPNPEMVSENSYIKLNTEVYGGPILSTWFDRPLSIAGRVTVRGKSALFPETKLLNIKRPILVIPNLAIHMNRDVNSGFKINPQVDTLPIIGIINDKFEKENYLMKIIASELGEDIENIIDFDLFLYEYDKGCIMGINNEFISSSRLDDMEMVHAGLNALVNAKCSEATNVLACFDNEEIGSATKQGADSQFLSDILERIVLSFGGDREDFFRALHNSFMISSDSAHAVHPNKGEKADPITRPHINEGPVIKISAAQKYTSDSNSIAVYEEVCRLSGVPYQKFVNRSDERGGSTIGPITATHTAIRTVDIGTPLLAMHSIRELCGTLDHMYVEKSFEEFYNEGHHHHHH,soluble
14,MTLDHQIINPTLKWSQPAVPSGGPLVQHAHTTLDSDAGLTENPLTKLLAIGKEDDNAQWHLSGSILDVYSGEQGISPINMGLTSASCPSSLPMKREITETDTRALAKERQKKDNHNLIERRRRYNINYRIKELGTLIPKSNDPDMRWNKGTILKASVEYIKWLQKEQQRARELEHRQKKLEQANRRLLLRIQVFIRM,not soluble
15,MGSDKIHHHHHHMAERLGISIRSIYRDIDSLRAQGVRIDASAGLGFQLKEDILLPPVTFNENEAEALFLALEWLKDVPDQAMKSAAVSIYSKLYAVLPEHRKYLIDDMTLGVTHYWHPVDEALVEQVRLAIRKQVKIKVDYCDEHKRISQRSLWPFALGYLHDKVVLAAWCELRQAFRHFRIDRIHDLQMSEEIYPEFKKHLFQRWWKQEMQRTTDKN,not soluble
16,MKGSRIELGDVTPHNIKQLKRLNQVIFPVSYNDKFYKDVLEVGELAKLAYFNDIAVGAVCCRVDHSQNQKRLYIMTLGCLAPYRRLGIGTKMLNHVLNICEKDGTFDNIYLHVQISNESAIDFYRKFGFEIIETKKNYYKRIEPADAHVLQKNLKVPSGQNADVQKTDN,soluble
17,MVPESHPRYKSLLNRDRIVEAFESGVLAKGGMIAHGRGETFDYLIGESTTDAALNSIKVSAALLVLAENPVISVNGNSVALAKDEFVELAKELNGKIEVNLFYRTTEREEKIKDVFESDINGGIVLLGIDNADKQIPGIDHLRGKVSESGIYTSDVVLVPLEDGDRAEALVKMGKTVIAIDLNPLSRTARKSTISIIDELTRCIPLITEYVREYKKMDRAELLKIVENYDNEENLRNILNLISKRLTSVDLEHHHHHH,soluble
18,GIDPFTMLHIEFITDLGAKVTVDVESADKLLDVQRQYGRLGWTSGEVPVGGYQFPLENEPDFDWSLIGARKWTNPEGEEMILHRGHAYRRRELEAVDSRKMKLPAAVKYSRGAKNTDPEHVREKADGEFEYVTLAIFRGGKRQERYAVPGSNRPQAGAPARSAATRAQGARPGAVAVQDEETPF,soluble
19,MSLRVAVGMSGGVDSSVTALLLKEQGHDVIRVTLRFHTVEACEVNETHNVCCSPKDVQDASRVAKRLGIPHLVFSWEEIFKSKVIDYFVEEYKRGRTPNPCALCNREVKTGFFARYLKQVADIDKLATGHYAKIEEDKKYGLVIKRPKDRKRDQTYFLSLVRREDLELLTFPLGAYTKEEVREIAKRYGLEVAQKRDSQEVCFLMGKSPGEYLEGILGKQRGLIKHVSGKVLGEHEGVYRYTIGQRRGLGISYGKPVYVIDIDAKTNTLIVGEEEYLYNDKLLVKEINFHVPLEKWENVSAQIRYRHKPVPVERIEKTEEGFLVKFKEDVRGITPGQVVAFYDGDVLLGGGIIEESVKEGHHHHHH,soluble
20,MGSDKIHHHHHHMFRVVICDDEKIQRSILKEFTEKLLSERCLNYQILEFSCGEDLISKYPEKIDIIFLDIQMKDINGIEVAKKIRKFDEKVEIIFTTAFSEYAPQGYEVRAYRYLVKPIEYSNFAMGVNLCIDNLQRKKERYIVLNSKKGFNRILIDSILYVETVKRDLVVHTIGRDYKANMSMKQAEKLLCENGFFRCHTSFIVNLRRIEDLRDNMITINEQFIPISKYRLKDLKVALTSLLCDIMY,not soluble
21,MNILYDERLDGPLPQVDKDGLLAELRLRLPDLELLHAAEDLRPYECDGLSAYRCTPLLVALPERIEQVQGLLALCHRLKVPVVARGAGTGLSGGALPLENGVLLVMARFRRILEIDPLGRFARVQPGVRNLAISQAAAPHGLYYAPDPSSQIACSIGGNVAENAGGVHCLKYGLTVHNLLQVDIVTLEGERLSLGSSALDSAGFDLLALFTGSEGLLGVVVEVTVRLLPRPPVAKVLLASFDDVESAGRAVADLIGAGIVPAGLEMMDNLSIRAAEDFIHAGYPVDAAAILLCELDGVEADVHEDCERVRELFEAAGATSVRQAQDEAERQRFWAGRKNAFPAVGRISPDYYCMDGSIPRRELPRVLHGIAELSREYGLRVANVFHAGDGNMHPLILFDANLAGELERAEALGGRILELCVAVGGSITGEHGVGREKINQMCAQFNADELTLFHAVKAAFDPAGLLNPGKNVPTLHRCAEFGAMHVHHGRLPFPELERF,not soluble
22,GIQVRDCMIPRNEMIACELQTDIEVLKTTFIDTGLSKIIIYRQNIDDVVGYIHSSEMFRGQDWQKRINTTVFVPESMYANKLMRLLMQRKKSIAIVIDELGGTAGMVTLEDLVEEIFGDIEDEH,not soluble
